Drawing on patent US20240102021A1, this text covers increase in cellular cAMP on αMSH stimulation (Epac H187 FRET, normalized to FSK+IBMX), MNT-1 cells expressing OPN3-MCh and increase in cellular cAMP (Epac H187 FRET ratio CFP/YFP, normalized to FSK+IBMX), control MCh-expressing MNT-1 cells for two substances.

The target of this assay is MC1R (endogenous, MNT-1 cells) (human) (UniProt Q01726). Briefly: cell-based or functional assay.
Chain of UniProt Q01726 (Q01726 whole entry): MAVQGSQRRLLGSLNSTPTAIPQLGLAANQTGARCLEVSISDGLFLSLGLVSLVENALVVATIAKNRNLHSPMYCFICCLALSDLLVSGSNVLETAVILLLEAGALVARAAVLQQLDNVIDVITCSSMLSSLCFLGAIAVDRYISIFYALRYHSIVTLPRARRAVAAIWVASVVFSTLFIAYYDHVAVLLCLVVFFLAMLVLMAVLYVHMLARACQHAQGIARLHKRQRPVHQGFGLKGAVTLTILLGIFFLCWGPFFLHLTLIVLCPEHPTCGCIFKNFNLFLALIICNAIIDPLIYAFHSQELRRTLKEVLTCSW

As to “OPN3-cMCh (from UniProt Q9H1Y3 1-402) (receptor)”, the increase in cellular cAMP on αMSH stimulation (Epac H187 FRET, normalized to FSK+IBMX), MNT-1 cells expressing OPN3-MCh amounted to 10%.
On to NDP-αMSH (peptide), for which the increase in cellular cAMP (Epac H187 FRET ratio CFP/YFP, normalized to FSK+IBMX), control MCh-expressing MNT-1 cells turned out to be 50%.
